Target: T1, BMC07 (uncultured bacterium (metagenome))
T1 chain: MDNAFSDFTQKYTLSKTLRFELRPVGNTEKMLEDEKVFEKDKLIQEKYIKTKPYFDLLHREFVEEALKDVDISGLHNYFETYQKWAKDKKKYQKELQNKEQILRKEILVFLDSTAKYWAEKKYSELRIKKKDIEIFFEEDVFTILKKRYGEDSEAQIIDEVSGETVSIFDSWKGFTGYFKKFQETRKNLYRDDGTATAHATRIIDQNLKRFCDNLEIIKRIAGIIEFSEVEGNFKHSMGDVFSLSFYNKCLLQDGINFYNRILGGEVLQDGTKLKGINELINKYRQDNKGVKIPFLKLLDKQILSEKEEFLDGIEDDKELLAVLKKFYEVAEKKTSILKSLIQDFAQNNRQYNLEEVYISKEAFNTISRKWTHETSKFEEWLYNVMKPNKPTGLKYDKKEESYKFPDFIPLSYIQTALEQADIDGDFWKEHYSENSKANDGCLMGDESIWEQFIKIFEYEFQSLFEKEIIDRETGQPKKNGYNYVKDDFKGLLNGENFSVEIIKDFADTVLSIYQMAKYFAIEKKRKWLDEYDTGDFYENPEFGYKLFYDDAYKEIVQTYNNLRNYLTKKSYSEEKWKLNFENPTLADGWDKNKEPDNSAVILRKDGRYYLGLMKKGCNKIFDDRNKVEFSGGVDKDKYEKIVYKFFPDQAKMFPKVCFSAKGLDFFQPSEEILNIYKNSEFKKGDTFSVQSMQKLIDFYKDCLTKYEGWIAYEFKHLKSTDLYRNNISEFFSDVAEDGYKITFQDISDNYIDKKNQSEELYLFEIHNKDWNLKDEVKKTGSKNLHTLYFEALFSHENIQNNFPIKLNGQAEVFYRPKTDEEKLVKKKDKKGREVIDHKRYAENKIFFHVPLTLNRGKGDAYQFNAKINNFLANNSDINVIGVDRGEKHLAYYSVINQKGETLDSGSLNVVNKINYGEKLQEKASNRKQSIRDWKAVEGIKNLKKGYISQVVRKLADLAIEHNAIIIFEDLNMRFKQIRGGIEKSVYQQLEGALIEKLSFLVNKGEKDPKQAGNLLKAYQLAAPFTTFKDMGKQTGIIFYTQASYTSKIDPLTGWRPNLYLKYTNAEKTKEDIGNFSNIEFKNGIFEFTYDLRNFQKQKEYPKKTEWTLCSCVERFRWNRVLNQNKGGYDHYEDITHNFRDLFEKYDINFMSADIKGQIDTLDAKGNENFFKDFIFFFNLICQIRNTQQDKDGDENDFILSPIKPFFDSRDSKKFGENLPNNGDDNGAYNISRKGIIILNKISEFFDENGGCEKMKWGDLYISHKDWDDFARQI
Assay: cell_activity; PAM not stated; E. coli depletion, 30 C
Experimental: Overnight grown pre-cultures were diluted into fresh 60 ml LB-Kanamycin (25 μg/ml) (Example 4) or LB-Kanamycin (25μg/ml)/Nourseothricin (50 μg/ml) medium (Example 5) to obtain an optical density at 600 nm (OD600) of 0.06. The inoculated medium was incubated at 30° C. on a horizontal shaker at 250 rpm until the culture reached an optical density at OD600 of 0.2. For induced BMC (NN) nuclease expression, 600 μl 20% L-(+)-arabinose (w/v) was added to the culture at a final concentration of 0.2% (v/v). The cultivation was continued until the culture reached an optical density at OD600 of 0.5. Subsequently 50 ml culture was transferred into one 50 ml conical tube and harvested by centrifugation at 4° C. for 5 min and 4000×g. Pelleted cells were resuspended in 50 ml ultrapure water (ice-cold) and centrifuged at 4° C. for 5 min and 4000×g.
This washing procedure was repeated twice. Washed cells were resuspended in 25 ml 10% (w/w) glycerin and re-centrifuged at 4° C. for 5 min and 4000×g. The pelleted cells were resuspended in 5 ml 10% (w/w) glycerin. After the final centrifugation step at 4° C. for 5 min and 4000×g, the cells were resuspended in 125 μl 10% (w/w) glycerin. Aliquots of 25 μl competent cells were stored at −80° C. until use. For the transformation procedure, aliquots of competent cells were thawed on ice and 50-100 ng plasmid DNA (CRISPR/gRNA-Ec) was added. Prepared cells were electroporated at 1800 V, 25 μF and 200 Ω in 1 mm gap size electroporation cuvettes, using the Bio-Rad Gene Pulser Xcell Electroporation System. Subsequently, 975 μL of NEB® 10-beta/Stable Outgrowth Medium was added immediately after the pulse to the transformed cells. Regeneration was done at 30° C. on a horizontal shaker at 250 rpm. Finally, 25-100 μl of the cell suspension was plated onto selective M9-Glucose agar plates supplemented with Kanamycin (25 μg/ml)/Ampicillin (100 μg/ml) (Example 4) or Kanamycin (25 μg/ml)/Ampicillin (100 μg/ml)/Nourseothrin (50 μg/ml) (Example 5). Growth of transformed E. coli cells on selective agar plates was screened for 48 h at 30° C.
As described above, each of the BMC01, BMC02, BMC03, BMC04, BMC05, BMC07, BMC08, BMC09, BMC10, BMC11, BMC12, BMC13, BMC14, or BMC15 nucleases was co-transformed into E. coli with a gRNA targeting the E. coli malQ gene to visualize a) the activity and b) the DNA targeting efficiency of the BMC nucleases.

B1: malQ gRNA (BMC stem-loop + 24 nt spacer) ; malQ protospacer (ssRNA ; dsDNA)
RNA: GAUUUCUACUAUUGUAGAUGUGGCGGUACGUUGAUGCAUCGCG
DNA 1: GTGGCGGTACGTTGATGCATCGCG
DNA 2: CGCGATGCATCAACGTACCGCCAC
  activity: > 99.9 % colony reduction

— patent US20250277199, “NOVEL CRISPR-CAS NUCLEASES FROM METAGENOMES” (Brain Biotech AG, published 2025)
